# Publication PMC4059916
# Biological target: VARP451-640His6 Q509A (human) (UniProt Q96NW4)
# Experiment: ITC; Nano ITC; VARP constructs at 60 μM in the cell at 4°C, Rab constructs at 300 μM titrated, 24 injections of 2 μl; 50 mM HEPES pH 7.4, 200 mM NaCl, 5 mM MgCl2, 1 mM TCEP
# VARP451-640His6 Q509A (human), sequence (Q96NW4 451-640 Q509A): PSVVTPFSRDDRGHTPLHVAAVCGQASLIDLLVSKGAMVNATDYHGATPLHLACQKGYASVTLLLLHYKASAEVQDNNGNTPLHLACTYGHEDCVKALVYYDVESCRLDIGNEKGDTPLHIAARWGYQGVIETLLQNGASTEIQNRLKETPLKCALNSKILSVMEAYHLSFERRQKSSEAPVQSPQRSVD
substance,measurement,value
"Rab32 1-225 (Q85L), GTP hydrolysis-defective mutant, GST removed (from UniProt Q13637 1-225) (enzyme)",Kd,30 µM
